Measured values as given in patent publication US20150299314A1 (TORAY INDUSTRIES, published 2015).

T1: CAPRIN-1 protein expressed on the cell surface of human cancer cells (human, UniProt Q14444 2-709)
T1 construct: whole, on cells; Target of all flow cytometry and ADCC assays; the cell line is named under assay; also called human CAPRIN-1; cytoplasmic- and proliferation-associated protein 1
T1 sequence (looked up): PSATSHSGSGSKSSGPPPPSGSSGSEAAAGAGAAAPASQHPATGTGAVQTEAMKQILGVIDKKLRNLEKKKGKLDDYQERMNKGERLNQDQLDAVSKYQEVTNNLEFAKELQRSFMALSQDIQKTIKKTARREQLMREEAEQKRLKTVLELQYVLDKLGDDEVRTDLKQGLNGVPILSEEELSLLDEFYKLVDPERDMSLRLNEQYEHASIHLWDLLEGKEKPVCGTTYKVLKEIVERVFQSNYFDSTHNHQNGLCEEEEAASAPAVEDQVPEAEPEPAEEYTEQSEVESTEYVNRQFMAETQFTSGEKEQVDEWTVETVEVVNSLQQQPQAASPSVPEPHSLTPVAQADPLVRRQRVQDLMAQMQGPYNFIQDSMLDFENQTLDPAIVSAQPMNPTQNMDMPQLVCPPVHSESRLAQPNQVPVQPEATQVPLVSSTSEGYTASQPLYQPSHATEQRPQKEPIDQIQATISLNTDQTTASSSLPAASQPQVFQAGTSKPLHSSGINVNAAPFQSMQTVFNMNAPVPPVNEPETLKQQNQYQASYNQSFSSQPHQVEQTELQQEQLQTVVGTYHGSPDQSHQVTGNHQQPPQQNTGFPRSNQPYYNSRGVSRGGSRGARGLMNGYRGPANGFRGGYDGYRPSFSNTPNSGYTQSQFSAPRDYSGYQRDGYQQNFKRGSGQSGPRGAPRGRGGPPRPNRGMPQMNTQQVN

T2: human CAPRIN-1 recombinant protein (human, UniProt Q14444 1-709)
T2 construct: also called CAPRIN-1 protein; antigen protein (human CAPRIN-1 protein)
T2 sequence: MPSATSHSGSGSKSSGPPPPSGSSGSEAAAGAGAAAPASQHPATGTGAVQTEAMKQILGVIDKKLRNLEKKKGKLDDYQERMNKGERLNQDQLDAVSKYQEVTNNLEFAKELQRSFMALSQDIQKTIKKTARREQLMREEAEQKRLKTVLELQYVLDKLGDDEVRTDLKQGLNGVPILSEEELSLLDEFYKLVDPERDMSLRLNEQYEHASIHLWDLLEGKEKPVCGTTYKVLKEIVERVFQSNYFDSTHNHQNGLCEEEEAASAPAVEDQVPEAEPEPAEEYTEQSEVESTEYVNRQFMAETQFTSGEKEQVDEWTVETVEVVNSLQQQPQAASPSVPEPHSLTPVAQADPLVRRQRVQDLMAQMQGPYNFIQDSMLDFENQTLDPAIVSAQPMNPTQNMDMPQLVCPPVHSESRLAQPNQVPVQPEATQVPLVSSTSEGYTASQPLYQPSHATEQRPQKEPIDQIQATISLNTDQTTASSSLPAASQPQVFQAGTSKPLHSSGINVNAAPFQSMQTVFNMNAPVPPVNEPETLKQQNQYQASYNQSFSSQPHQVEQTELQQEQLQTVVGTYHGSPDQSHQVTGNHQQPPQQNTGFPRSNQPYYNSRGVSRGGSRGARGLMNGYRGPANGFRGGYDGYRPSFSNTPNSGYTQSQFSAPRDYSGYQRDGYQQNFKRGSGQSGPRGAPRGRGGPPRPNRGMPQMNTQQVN

T3: polypeptide set forth in SEQ ID NO: 430 (human)
T3 peptide: ATQVPLVSSTSEGYTA


Assays:
[1] = target: T1, CAPRIN-1 protein expressed on the cell …; test: flow cytometry, TGBC14TKB cells, culture supernatant, isotype control antibody as control
Description: Subsequently, a gallbladder cell line TGBC14TKB, which was confirmed to express a CAPRIN-1 gene, was investigated for whether or not a CAPRIN-1 protein is expressed on the surfaces of these cells. 1×10⁶ cells of TGBC14TKB were centrifuged with a 1.5-mL micro centrifugation tube. To the cells was added the culture supernatant (100 μL) containing any of anti-CAPRIN-1 mouse monoclonal antibodies #1 to #22 reacting to cancer cell surface produced in Example 4 and anti-CAPRIN-1 mouse-chicken chimeric antibodies #1 to #3 produced in the above (2), followed by being left to stand on ice for 1 hour. After washing with PBS, the cells were suspended in a FITC-labeled goat anti-mouse IgG antibody (manufactured by life technologies) diluted by 500-fold with PBS containing 0.1% FBS, followed by being left to stand on ice for 1 hour. After washing with PBS, the fluorescence intensity was measured with FACS Calibur available from Becton, Dickinson and Company. Separately, as a control, the same procedure as in above was performed using an iso-type control antibody, instead of the culture supernatants containing the anti-CAPRIN-1 mouse monoclonal antibodies #1 to #22 and the mouse-chicken chimeric antibodies #1 to #3. As a result, the fluorescence intensity in the cells to which any of the monoclonal antibodies #1 to #22 and the mouse-chicken chimeric antibodies #1 to #3 was added was 20% or more higher than that in the control in every case. Specifically, in the case of using mouse-chicken chimeric antibody #1, the fluorescence intensity was enhanced by 200% or more. […] The rate of increase in the fluorescence intensity is represented by the rate of increase in the mean fluorescence intensity (MFI value) in each cell and is calculated by the following calculation formula: […]

[2] = target: T1, CAPRIN-1 protein expressed on the cell …; test: cell-based or functional assay
[3] = target: T1, CAPRIN-1 protein expressed on the cell …; test: flow cytometry, TGBC14TKB cells, antibody 20 ug/mL, secondary antibody only as control
Description: (§1) A human gallbladder cancer cell line TGBC14TKB was investigated whether or not a CAPRIN-1 protein is expressed on the cell surface. 5×10⁵ cells of the gallbladder cancer cell line were centrifuged with a 1.5-mL micro centrifugation tube. The cells were subjected to reaction with each mouse anti-CAPRIN-1 antibody at a final concentration of 20 μg/mL, followed by being left to stand on ice for 1 hour. After washing with PBS, the cells were reacted with a 100-fold diluted Alexa488-labeled goat anti-mouse IgG antibody (manufactured by life technologies), followed by being left to stand on ice for […]. After washing with PBS, the fluorescence intensity was measured with FACS Calibur available from Becton, Dickinson and Company. As a negative control, only the secondary antibody was used in the reaction.
as §1, with “cell surface using mouse anti-CAPRIN-1 monoclonal antibodies #30 to #36.” for “cell surface.”, “of TGBC14TKB” for “of the gallbladder cancer cell line”, “each of” for “each”, “anti-CAPRIN-1 antibodies #30 to #36” for “anti-CAPRIN-1 antibody”, “Company. Separately, the cells were subjected to reaction with” for “Company. As a negative control,”, “antibody as a negative control.” for “antibody was used in the reaction.”

[4] = target: T2, human CAPRIN-1 recombinant protein; test: reactivity with CAPRIN-1 protein, method not detailed
[5] = target: T3, polypeptide set forth in SEQ ID NO: 430; test: reactivity with the epitope peptide, method not detailed
[6] = target: T1, CAPRIN-1 protein expressed on the cell …; test: reactivity with gallbladder cancer cell lines, method not detailed

Binder	rate of increase in mean fluorescence intensity over control [1]	increase in fluorescence intensity over control [3]	binding result [4]	binding result [5]	binding result [6]	cytotoxicity (ADCC, 51Cr release) on TGBC14TKB, human NK cells [2]
mouse monoclonal antibody #3 (antibody, V domains shown) VH: GGGLVKPGGSLKLSCAASGFTFSSYGMSWVRQTPEKRLEWVATISSGGSYTYYPDSVKGRFTISRDNAKNTLYLQMSSLRSEDTAMYYCASLASYYFDYWGQGTTLTVSS VL: not shown	≥ 20%	–	–	–	–	≥ 15%
humanized anti-CAPRIN-1 antibody #2 (antibody, human IgG1, V domains shown) VH: EVQLVESGGGLVQPGGSLRLSCAASGFSFSGSYYMSWVRQAPGKGLEWIAYIYIGDGVTAYANWAKGRFTISKDNSKNTLYLQMNSLRAEDTAVYFCARGNKLWGPGTLVTVSS VL: DIQMTQSPSSLSASVGDRVTIKCQASQSISSYLAWYQQKPGKAPKRLIYDASNLDSGVPSRFSGSGSGTDFTFTISSLQPEDIATYYCQCTAVSSATIYGNAFGGGTKVEIK	–	–	binds	binds	binds	–
humanized anti-CAPRIN-1 antibody #1 (antibody, human IgG1, V domains shown) VH: QVQLVESGGGLVKPGGSLRLSCAASGFSFSGSYYMSWVRQAPGKGLEWIAYIYIGDGVTAYANWAKGRFTISRDNAKNSLYLQMNSLRAEDTAVYFCARGNRLWGQGTLVTVSS VL: DIQMTQSPSSLSAAVGDRVTIKCQASQSISSYLAWYQQKPGKPPKRLIYDASNLDSGVPSRFSGSGSGTDFTFTISSLQPEDIATYYCQCTAVSSATIYGNAFGGGTKVEIK	–	–	binds	binds	binds	–
mouse monoclonal antibody #18 (antibody, V domains shown, mouse hybridoma antibody; also called anti-CAPRIN-1 mouse monoclonal antibody #18; anti-CAPRIN-1 monoclonal antibody #18) VH: LQESGAELARPGASVKLSCKASGYTFTSYWMQWVKQRPGQGLEWIGAIYPGDGDTRYTQKFKGKATLTADKSSSTAYMQLSSLASEDSAVYYCARGEYGNYFAYWGQGTTVTVSS VL: TSDASLGERVTITCKASQDINSYLSWFQQKPGKSPKTLIYRANRLVDGVPSRFSGSGSGQDYSLTISSLEYEDMGIYYCLQYDEFPLTFGGGTKLEIKQ	≥ 20%	–	–	–	–	≥ 15%
mouse monoclonal antibody #15 (antibody, V domains shown, mouse hybridoma antibody; also called anti-CAPRIN-1 mouse monoclonal antibody #15; anti-CAPRIN-1 monoclonal antibody #15) VH: EVQLHQFGAELVKPGASVKISCKASGYTFTDYNMDWVKQSHGKSLEWIGDINPNYDSTSYNQKFKGKATLTVDKSSSTAYMELRSLTSEDTAVYYCARSRSYDYEGFAYWGQGTLVTVSA VL: SGDRVSLSCRASQSISNYLHWYQQKSHESPRLLIKYASQSISGIPSRFSGSGSGTDFTLSINSVETEDFGMYFCQQSNSWPYTFGAGTKLEIKQ	≥ 20%	–	–	–	–	≥ 15%

The next lines start with results.

rate of increase in mean fluorescence intensity over control [1]	increase in fluorescence intensity over control [3]	binding result [4]	binding result [5]	binding result [6]	Binder	cytotoxicity (ADCC, 51Cr release) on TGBC14TKB, human NK cells [2]
–	≥ 35%	–	–	–	mouse anti-CAPRIN-1 antibody #33 (antibody) chain 1: GPGLVKPSQSLSLTCSVTGYSITSGYYWNWIRQFPGNKLEWMGYISYDGSNNYNPSLKNRISITRDTSKNQFFLKLNSVTTEDTATYYCATGMAWFAYW chain 2: not shown	–
≥ 20%	–	–	–	–	mouse monoclonal antibody #6 (antibody) chain 1: DAELVKPGASVKISCKASGYTFTDHSIHWVQQKPEQGLEWIGYISPGNGNIKYNEKFKGKATLTADKSSSTAYMQLNSLTSEDSAVYFCKRSLGRGGPYYFDYWGQGTTVTVSS chain 2: DIVLTQAAPSLPVTPGESVSISCRSSKSLLHSNGNTYLYWFLQRPGQSPQLLIYRMSNLASGVPDRFSGSGSGTAFTLRISRVEAEDVGVYYCMQHREYPVTFGSGPN	≥ 15%
–	–	binds	binds	binds	humanized anti-CAPRIN-1 antibody #3 (antibody, human IgG1, V domains shown) VH: EVQLVESGGGLVQPGGSLRLSCAASGFSFSGSYYMSWVRQAPGKGLEWIAYIYIGDGVTAYANWAKGRFTISRDNSKNTLYLQMNSLRAEDTAVYYCARGNKLWGPGTLVTVSS VL: DIQMTQSPSSLSASVGDRVTIKCQASQSISSYLAWYQQKPGKAPKRLIYDASNLDSGVPSRFSGSGSGTDFTFTISSLQPEDIATYYCQCTAVSSATIYGNAFGGGTKVEIK	–
≥ 20%	–	–	–	–	mouse monoclonal antibody #14 (antibody, V domains shown, mouse hybridoma antibody; also called anti-CAPRIN-1 mouse monoclonal antibody #14; anti-CAPRIN-1 monoclonal antibody #14) VH: EVQLHQFGAELVKPGASVKISCKASGYTFTDYNMDWVKQSHGKSLEWIGDINPNYDSTSYNQKFKGKATLTVDKSSSTAYMELRSLTSEDTAVYYCARSRSYDYEGFAYWGQGTLVTVSA VL: DIQLTQSPASLSASVGETVTITCRASGNIHNYLAWYQQKQGKSPQLLVYNAKTLADGVPSRFSGSGSGTQYSLKINSLQPEDFGSYYCQHFWSTLTFGGGTKLEIKQ	≥ 15%
–	≥ 35%	–	–	–	mouse anti-CAPRIN-1 antibody #31 (antibody, V domains shown, mouse hybridoma antibody; also called mouse anti-CAPRIN-1 monoclonal antibody #31) VH: GPELVKPGASVKISCKASGYSFTGYFMNWVMQSHGKSLEWIGRINPYNGDTFYNQKFKGKATLTVDKSSSTAHMELRSLASEDSAVYYCARRIHYYYGSSYYAMDYWGQEPHH VL: DVQITQSPSYLAASPGETITINCRASKSISKYLAWYQEKPGKTNKLLIYSGSTLQSGIPSRFSGSGSGTDFTLTISSLEPEDFAMYYCQQHNEYPWTFGGGTKLEIKR	–
